Columns and labels:
[1] = test system: dimannosylated peptide P2 (DM); type: binding
[2] = binding partner not given; cited from earlier work

CVN2L0-V2: CVN2L0 variant with one C58E–C73R substitution, three disulfide bonds
Rmax, binding to DM ([1]; SPR sensorgrams Fig. 3E-F): 132 RU

B1: wild-type CV-N: 11 kDa lectin originating from Nostoc ellipsosporum (protein, UniProt P81180 1-101, looked up)
Cyanovirin-N: LGKFSQTCYNSAIQGSVLTSTCERTNGGYNTSSIDLNSVIENVDGSLKWQPSNFIETCRNTQLAGSSELAAECKTRAQQFVSTKINLDDHIANIDGTLKYE
Kd [2]: 5.7 nM

B2: CVN2L0-V4: CVN2L0 variant with Cys–Cys mutagenesis to Trp–Met and Glu–Arg, two disulfide bonds (protein)
chain: LGKFSQTCYNSAIQGSVLTSTCERTNGGYNTSSIDLNSVIENVDGSLKWQPSNFIETWRNTQLAGSSELAAEMKTRAQQFVSTKINLDDHIANIDGTLKYELGKFSQTCYNSAIQGSVLTSTCERTNGGYNTSSIDLNSVIENVDGSLKWQPSNFIETERNTQLAGSSELAAERKTRAQQFVSTKINLDDHIANIDGTLKYE
modifications: left off: His6, N-terminal, state not stated
binding to DM (in words) ([1]; SPR, listed as V4): showed binding

— publication PMC9050506 (RSC Advances, 2020)
